# Measurements taken from the DeepSol protein solubility set.
# Experiment: soluble on expression in E. coli; label from the status in PepcDB or PDB records
row,Sequence,soluble on expression in E. coli
1,MLLDFPHGQFGFTNSCIIAVIWLSLSPTLNRGQLNLDRFKFWLPTSQLLVLDVCLFDAFALEHHHHHH,not soluble
2,MSLATICSLCNKKISIFKMRLKFKDGVVGQSCLSELNLCNFWAFEPGAKEYAESHTIADLKELQTSGKDFTNIQDQYIDDETKKELQKKQEKKQERQEKIEVLKEFKDDGATKFSSYYFDLKKNQILSSGSLTTSWRVIDFSEVLSYQVNRNGHLEQKHHGIARAVTGGIMAGGVGAIVGTTTGENTDYIDHLGLVINLSDGTNFEVKFLKTKTKTNSFTVKTAEGELRSLISIVQSGMNKAQEKAEQEQTKANTIKIESNADPAEEIRKFKKMADEGIISNEEFEAKKKQLLNLQEGHHHHHH,not soluble
3,MSLNNIAPQSPVMRRLTLQDNPAIASVIRQVYAEYGLTADKGYTVADPNLDELYQVYSQPGHAYWVVEYNGEVVGGGGIAPLTGSEADICELQKMYFLPAIRGKGLAKKLALMAMEQAREMGFKRCYLETTAFLKEAIALYEHLGFEHIDYALGCTGHVDCEVRMLRELEGHHHHHH,not soluble
4,MGSSHHHHHHSSGRENLYFQGHMSCTTDKLIQKYDALVRKTTEHKFAKELCAGTLKDRSLYIYLSQDLQFFETSLRLICKTTSLAPTTHALITLAKKIGFFSNDENSYFHDCLELLAPSLTKEERDNFDNKAIPGVDAYINFLDELRKDASITWPSLVTSLWVAEELYWRWARDTPRAPGLHWKYQKWIDLHDGEHFQTWCEFLKAEVDKFPVEEVESIFVKVSQFEFEFFESCYNA,soluble
5,FLNTISTKDFKQKMADKTTGFVYVGRPTCEDCQAFQPILKKELEKRQPDQKMAYYNTDKASEKSRDDMIALLKKMDIDSVPTMVYLKDGKVASTYAATDEPAKLTNWMNKVSG,not soluble
6,MGSDKIHHHHHHMTARTSALAIEIDRQDRSPIYLQICERFRTAIAAGHLRPGDRVPALRGLALQLNTARGTVEMAYTILVDEGYLQMRGAAGTFVSASLPASVTRPARGGDREQPPAREQGATKSSHALRGRQPATRQLAIAVAMSGEPKLLQPGLPALDAFPRKLWNRLVSRCARSGERAMLAYPDPVGYRALREHIATYLGLSRGVACVPEQVFITAGYRATLELVLRSLASPNDRMWFEDPGYLLARGFLAEVGVNLVPVPIDSEGIDVDRGIALDPLARFALVTPSHQAPLGYTLSLARRMALLDWAAKGSSWIIEDDYDSEFRYVGRPLPALKSLDKDDRVIYCGTFSKVMFPGLRLAYAVVPERAVERVERVACSMNAGSPTLLQAAVADFIEQGHFARHVKRMRALYGQRRTLIAHALEQAFGERMLVELPHGGIQFAVQFAEGPDGPVDDVAVAARARDAGLAVVPLSIWYANGRTRRTPRGLVMGFANVTDAREALRLARTLYGCLTG,not soluble
7,GRRDNLIVGLDIGTTKICAIVGNVTEDGIDIVGIGTSPSRGMRKGVVINIESTVESIKKAVSEAELMAGCDIRSVYAGIAGGHIKGINSQGVIAIKNREVSSEDVKRVIDAAKAIAIPMDR,not soluble
8,GPLGMATEEAIIRIPPYHYIHVLDQNSNVSRVEVGPKTYIRQDNERVLFAPVRMVTVPPRHYCIVANPVSRDAQSSVLFDVTGQVRLRHADQEIRLAQDPFPLYPGELLEKDITPLQVVLPNTALHLKALLDFEDKNGDKVMAGDEWLFEGPGTYIPQKEVEVVEIIQATVIKQNQALRLRARKECFDRDGKERVTGEEWLVRSVGAYLPAVFEEVLDLVDAVILTEKTALHLRARQNFKDLRGVAHRTGEEWLVTVQDTEAHVPDVYEEVLGVVPITTLGPRHYCVILDPMGPDGKNQLGQKRVVKGEKSFFLQPGERLERGIQDVYVLSEQQGLLLKALQPLEEGEGEERVAHQAGDRWLIRGPLEYVPSAKVEVVEERQAIPLD,soluble
9,MPGIRGPSEYSQEPPRHPSLKVNAKEPFNAEPPRSALVSSYVTPVDLFYKRNHGPIPIVDHLQSYSVTLTGLIQNPRKLFIKDIRSLPKYNVTATLQCAGNRRTAMSKVRNVRGVGWDVSAIGNAVWGGAKLADVLELVGIPKLTASTNLGARHVEFVSVDRCKEENGGPYKASITLSQATNPEADVLLAYEMNGETLNRDHGFPLRVVVPGVIGARSVKWLDSINVIAEESQGFFMQKDYKMFPPSVNWDNINWSSRRPQMDFPVQSAICSVEDVQMVKPGKVSIKGYAVSGGGRGIERVDISLDGGKNWVEASRTQEPGKQYISEHSSSDKWAWVLFEATIDVSQTTEVIAKAVDSAANVQPENVESVWNLRGVLNTSWHRVLLRLGHSNL,soluble
